Where a SMILES comes first, the peptide text is derived from it. Where no end group is shown, it is not given here. [ ]: non-standard residue; d: D form. The star is where a group is joined. Dansyl = CN(C)c1cccc2c(S(=O)(=O)*)cccc12; PhLac = O=C(O)[C@@H](O)Cc1ccccc1
B1: dansyl-APP F764A (peptide)
peptide: Dansyl-NGYENPTYKAFE
B2: dansyl-APP P760A (peptide)
peptide: Dansyl-NGYENATYKFFE
B3: dansyl-APP F765A (peptide)
peptide: Dansyl-NGYENPTYKFAE
B4: dansyl-APP P760G (peptide)
peptide: Dansyl-NGYENGTYKFFE
B5: dansyl-APP K763G (peptide)
peptide: Dansyl-NGYENPTYGFFE
B6: dansyl-APP K763A (peptide)
peptide: Dansyl-NGYENPTYAFFE
B7: dansyl-APP Y762F (peptide)
peptide: Dansyl-NGYENPTFKFFE
B8: dansyl-APP F764G (peptide)
peptide: Dansyl-NGYENPTYKGFE
B9: dansyl-APP F765G (peptide)
peptide: Dansyl-NGYENPTYKFGE
B10: dansyl-APP Y757F (peptide)
peptide: Dansyl-NGFENPTYKFFE

How the values were obtained:
[1] = biological target: Mint2 PARMWT 364-570 (Homo sapiens, UniProt Q99767); test: biochemical
[2] = biological target: T1, Mint2 PARM 364-570 (Y524W, Y543A) (Homo sapiens, UniProt Q99767, Y524W/Y543A); test: biochemical
T1 sequence (Q99767 364-570 Y524W/Y543A): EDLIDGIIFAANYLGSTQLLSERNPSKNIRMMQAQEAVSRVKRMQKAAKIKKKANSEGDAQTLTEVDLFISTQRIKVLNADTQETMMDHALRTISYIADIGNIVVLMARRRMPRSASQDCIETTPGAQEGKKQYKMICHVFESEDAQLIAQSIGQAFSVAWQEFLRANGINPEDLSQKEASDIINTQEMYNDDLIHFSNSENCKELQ

[3] = biological target: T2, Mint2 PARM 364-570 (Y524W, Y543E) (Homo sapiens, UniProt Q99767, Y524W/Y543E); test: biochemical
T2 sequence (Q99767 364-570 Y524W/Y543E): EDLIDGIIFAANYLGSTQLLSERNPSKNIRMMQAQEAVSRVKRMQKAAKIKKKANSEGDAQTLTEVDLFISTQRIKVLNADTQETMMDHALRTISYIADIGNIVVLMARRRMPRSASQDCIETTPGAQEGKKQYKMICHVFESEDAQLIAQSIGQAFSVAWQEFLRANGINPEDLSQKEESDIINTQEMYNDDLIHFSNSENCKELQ

[4] = biological target: T3, PARM-pWT (364-570; R455K, C483A, C501A, Y524W, C566A) (Homo sapiens, UniProt Q99767, C483A/C501A/C566A/R455K/Y524W); test: Stopped flow binding kinetics, APP A-to-E variants to PARM-pWT
T3 construct: made in house; host or cells: semisynthesis, three-segment approach (expressed fragments plus synthetic segment)
T3 sequence (Q99767 364-570 R455K/C483A/C501A/Y524W/C566A): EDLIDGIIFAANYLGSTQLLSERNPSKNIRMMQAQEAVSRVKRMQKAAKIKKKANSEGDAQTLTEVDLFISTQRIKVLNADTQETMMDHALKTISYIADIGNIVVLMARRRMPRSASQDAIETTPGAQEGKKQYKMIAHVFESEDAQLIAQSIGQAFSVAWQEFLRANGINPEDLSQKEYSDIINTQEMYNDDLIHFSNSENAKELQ
Procedure: (§1) Kinetic binding rate constants were obtained using an upgraded SX17 stopped flow spectrometer (Applied Photophysics), and all experiments were conducted at 25 °C in 500 mM NaCl and 25 mM HEPES (pH 7.4). The relatively high NaCl concentration was used to improve the solubility of the proteins. The change in tryptophan fluorescence was measured using a band-pass filter (excitation at 280 nm and emission at 330 ± 30 nm) when mixing varying concentrations (2–50 μM) of the dansyl peptides with 1 μM protein or 0.5 μM semisynthetic proteins. […] For PTB variants, we used the kobs value from the fast kinetic phase for the analysis. […] We report the errors in kon and koff from the curve fitting. […] For these koff determinations, we report the standard error of the mean of three replicates. Φ values were defined as ΔΔGTS/ΔΔGeq, where ΔΔGTS = RT ln(kon^WT/kon^mut.) and ΔΔGeq = RT ln(Kd^mut./Keq^WT). Calculated coupling free energies were defined as ΔΔΔGEq = RT ln(Kd^mut.:WTKd^WT:mut./Kd^WT:WTKd^mut.:mut.) or ΔΔΔGTS = RT ln(kon^WT:WTkon^mut.:mut./kon^mut.:WTkon^WT:mut.) as previously described.[27] Propagated errors are reported.

[5] = biological target: T1, Mint2 PARM 364-570 (Y524W, Y543A); test: Stopped flow binding kinetics, APP peptides to PARM^Y543A; design: made in house; host or cells: Escherichia coli BL21(DE3)pLysS
Procedure: as §1

[6] = biological target: Mint2 PTB 364-538 (Homo sapiens, UniProt Q99767, Y524W); test: biochemical
[7] = biological target: T4, Mint2 PARM 364-570 (Y524W), pWT PARM (PTB domain and ARM linker) (Homo sapiens, UniProt Q99767, Y524W); test: Stopped flow binding kinetics, APP peptides to PARM (pseudo-wild type)
T4 construct: made in house; host or cells: Escherichia coli BL21(DE3)pLysS
T4 sequence (Q99767 364-570 Y524W): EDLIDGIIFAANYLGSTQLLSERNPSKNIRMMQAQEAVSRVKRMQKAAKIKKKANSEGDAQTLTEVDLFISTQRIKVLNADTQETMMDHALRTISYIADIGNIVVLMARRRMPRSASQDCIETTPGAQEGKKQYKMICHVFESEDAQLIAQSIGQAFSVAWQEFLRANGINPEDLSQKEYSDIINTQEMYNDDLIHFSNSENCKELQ
Procedure: as §1

[8] = biological target: T5, Mint2 PTB 364-538 (without the ARM linker) (Homo sapiens, UniProt Q99767, Y524W); test: Stopped flow binding kinetics, APP peptides to PTB
T5 construct: made in house; host or cells: Escherichia coli BL21(DE3)pLysS
T5 sequence (Q99767 364-538 Y524W): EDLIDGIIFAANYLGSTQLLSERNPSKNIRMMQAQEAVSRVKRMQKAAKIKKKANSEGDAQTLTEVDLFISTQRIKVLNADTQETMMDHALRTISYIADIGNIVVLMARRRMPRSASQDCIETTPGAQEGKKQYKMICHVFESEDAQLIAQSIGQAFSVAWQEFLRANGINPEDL
Procedure: as §1

[9] = biological target: pseudo-wild type (pWT) PARM domain of Mint2 (residues 364-570, Y524W) (human, UniProt Q99767 364-570, Y524W); test: stopped-flow fluorescence kinetics; conditions: both partners purified
[10] = biological target: PARM^Y543A (human, UniProt Q99767 364-570, Y524W | Y543A); test: stopped-flow fluorescence kinetics; conditions: both partners purified
[11] = biological target: PARM^Y543E (human, UniProt Q99767 364-570, Y524W | Y543E); test: stopped-flow fluorescence kinetics; conditions: both partners purified
[12] = biological target: PTB without the ARM linker (Mint2 residues 364-538) (human, UniProt Q99767 364-538, Y524W); test: stopped-flow fluorescence kinetics; conditions: both partners purified

Mint2 PARMWT 364-570, sequence (Q99767 364-570): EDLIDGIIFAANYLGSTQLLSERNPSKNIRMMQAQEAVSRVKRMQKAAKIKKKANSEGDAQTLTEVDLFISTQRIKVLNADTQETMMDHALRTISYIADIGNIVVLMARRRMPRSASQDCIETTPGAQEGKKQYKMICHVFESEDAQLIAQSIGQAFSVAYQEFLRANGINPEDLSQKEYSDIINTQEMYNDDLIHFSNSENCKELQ

Row | Molecule | binding result [9] | binding result [10] | binding result [11] | binding result [12] | also measured
1 | NGYENPTYKFFE [APPWT (12-mer)] | – | – | – | – | Ki [1]: 3200 nM; Ki [2]: 1100 nM; Ki [3]: 1100 nM
2 | C[C@@H](O)[C@H](NC(=O)[C@@H]1CCCN1C(=O)[C@H](CC(N)=O)NC(=O)[C@H](CCC(=O)O)NC(=O)[C@H](Cc1ccc(O)cc1)NC(=O)CNC(=O)[C@H](CC(N)=O)NC(=O)CNC(=O)[C@H](CC(N)=O)NC(=O)[C@H](CC(N)=O)NS(=O)(=O)c1cccc2c(N(C)C)cccc12)C(=O)N[C@@H](Cc1ccc(O)cc1)C(=O)N[C@@H](CCCCN)C(=O)N[C@@H](Cc1ccccc1)C(=O)O[C@@H](Cc1ccccc1)C(=O)N[C@@H](CCC(=O)O)C(=O)O [Peptide F765φ] (Dansyl-NNGNGYENPTYKF[PhLac]E-OH; N-terminus and C-terminus assumed) | – | – | – | – | Kd [4]: 40000 ± 9000 nM; koff [4]: 27 s⁻¹; F (Φ value, ΔΔGTS/ΔΔGeq) ([4]; APP A-to-E variant vs Dansyl-APPWT): ~0; kon ([4]; pH 7.4): 690000 M⁻¹ s⁻¹
3 | C[C@@H](O)[C@H](NC(=O)[C@@H]1CCCN1C(=O)[C@H](CC(N)=O)NC(=O)[C@H](CCC(=O)O)NC(=O)[C@H](Cc1ccc(O)cc1)NC(=O)CNC(=O)[C@H](CC(N)=O)NC(=O)CNC(=O)[C@H](CC(N)=O)NC(=O)[C@H](CC(N)=O)NS(=O)(=O)c1cccc2c(N(C)C)cccc12)C(=O)N[C@@H](Cc1ccc(O)cc1)C(=O)NCC(=O)N[C@@H](Cc1ccccc1)C(=O)N[C@@H](Cc1ccccc1)C(=O)N[C@@H](CCC(=O)O)C(=O)O [Peptide K763G] | – | – | – | – | Kd [5]: 10000 ± 300 nM
4 | Dansyl-NNG-NGψENPTYKFFE [Peptide Y757ψ, dansyl-APP peptide with amide-to-ester backbone modification at Y757] | – | – | – | – | kinetic transient in the stopped flow experiment ([4]; most likely due to a kobs outside the range of the instrument (>300 s^–1)): did not give a kinetic transient
5 | C[C@H](NC(=O)[C@H](Cc1ccc(O)cc1)NC(=O)[C@@H](NC(=O)[C@@H]1CCCN1C(=O)[C@H](CC(N)=O)NC(=O)[C@H](CCC(=O)O)NC(=O)[C@H](Cc1ccc(O)cc1)NC(=O)CNC(=O)[C@H](CC(N)=O)NC(=O)CNC(=O)[C@H](CC(N)=O)NC(=O)[C@H](CC(N)=O)NS(=O)(=O)c1cccc2c(N(C)C)cccc12)[C@@H](C)O)C(=O)N[C@@H](Cc1ccccc1)C(=O)N[C@@H](Cc1ccccc1)C(=O)N[C@@H](CCC(=O)O)C(=O)O [Peptide K763A] | – | – | – | – | Ki [6]: 800 nM
6 | C[C@@H](O)[C@H](NC(=O)[C@@H]1CCCN1C(=O)[C@H](CC(N)=O)NC(=O)[C@H](CCC(=O)O)NC(=O)[C@H](Cc1ccc(O)cc1)NC(=O)CNC(=O)[C@H](CC(N)=O)NC(=O)CNC(=O)[C@H](CC(N)=O)NC(=O)[C@H](CC(N)=O)NS(=O)(=O)c1cccc2c(N(C)C)cccc12)C(=O)N[C@@H](Cc1ccccc1)C(=O)N[C@@H](CCCCN)C(=O)N[C@@H](Cc1ccccc1)C(=O)N[C@@H](Cc1ccccc1)C(=O)N[C@@H](CCC(=O)O)C(=O)O [Peptide Y762F] | – | – | – | – | Kd [7]: 4000 nM
7 | C[C@@H](O)[C@H](NC(=O)[C@@H]1CCCN1C(=O)[C@H](CC(N)=O)NC(=O)[C@H](CCC(=O)O)NC(=O)[C@H](Cc1ccccc1)NC(=O)CNC(=O)[C@H](CC(N)=O)NC(=O)CNC(=O)[C@H](CC(N)=O)NC(=O)[C@H](CC(N)=O)NS(=O)(=O)c1cccc2c(N(C)C)cccc12)C(=O)N[C@@H](Cc1ccc(O)cc1)C(=O)N[C@@H](CCCCN)C(=O)N[C@@H](Cc1ccccc1)C(=O)N[C@@H](Cc1ccccc1)C(=O)N[C@@H](CCC(=O)O)C(=O)O [Peptide Y757F] | – | – | – | – | Kd [8]: 600 nM
8 | B1 | binds | binds | binds | binds | –
9 | B2 | binds | binds | binds | binds | –
10 | B3 | binds | binds | binds | binds | –
11 | B4 | binds | binds | binds | binds | –
12 | B5 | binds | binds | binds | binds | –
13 | B6 | binds | binds | binds | binds | –
14 | B7 | binds | binds | binds | binds | –
15 | B8 | binds | binds | binds | binds | –
16 | B9 | binds | binds | binds | binds | –
17 | B10 | binds | binds | binds | binds | –

Source: publication PMC8291497 (ACS Chemical Biology, 2021)
